In assay [1] the target is CaV1.2 IQ motif peptide F1658A (UniProt P15381). Description: ITC.
The target in assay [2] is CaV1.2 IQ motif peptide F1658D (UniProt P15381). Description: ITC. On the technique in general: ITC needs no label: the signal is the heat of the interaction.
Assay [3] has as its target CaV1.2 IQ motif peptide I1654A (UniProt P15381). Description: ITC.
The target in assay [4] is CaV1.2 IQ motif peptide Y1649A (UniProt P15381). Kind of assay: ITC.
Assay [5] deals with CaV1.2 IQ motif peptide Y1657D (UniProt P15381). Description: ITC.
Assay [6] addresses fluorescently labeled CaV1.2 IQ peptide K1662E (UniProt P15381). Description: fluorescence polarisation.
In assay [7] the target is fluorescently labeled CaV1.2 IQ peptide, wildtype (UniProt P15381). Kind of assay: fluorescence polarisation. In general terms: Polarisation of emitted light reports the rotation of a fluorescent probe.
For assay [8], the target named is fluorescently labeled CaV1.2 IQ peptide Y1657D (UniProt P15381). Description: fluorescence polarisation.

From paper doi:10.1101/2022.06.24.497440 come the findings set out here.

The term Kd denotes the free concentration of one partner at which half of the binding sites on the other are occupied at equilibrium, for simple one-to-one binding. Lower therefore signals higher affinity.

As for “calmodulin mutant D21A/D23A/D25A/E32Q/D57A/D59A/N61A/E68Q (CaM12’), Ca2+ bound at EF3 and EF4 (from UniProt P0DP23 1-149) (natural protein)”, the Kd in assay [1] is 32 nM; in assay [2], 4 µM; in assay [3], 60 nM; in assay [4], 26 nM; in assay [5] it was 8 µM; in assay [6] it was less than 100 nM. This substance came in with a Kd in assay [7] of less than 100 nM.

“calmodulin, wild type, Ca2+-free (apoCaM) (from UniProt P0DP23 1-149) (natural protein)” registered a Kd in assay [8] of 60 µM.
